In patent publication EP1908827A2 one finds change in I-1 co-precipitated with PP1c (dominant negative PKCα co-expressed, against I-1 + β-gal) and change in I-1 co-precipitated with PP1c (wildtype PKCα co-expressed, against I-1 + β-gal) data, which are given here for 1 substance.

Test [1] has as its target PP1c (type-1 protein phosphatase catalytic subunit, PP1c alpha). As to the kind of experiment: PP1c pull-down from extracts of cardiomyocytes co-infected with Ad-I-1 and AdPKCα dn, I-1 western blot quantified. On the technique in general: A western blot detects proteins with antibodies after separation by electrophoresis.
Test [2] has the same target. Description: PP1c pull-down from extracts of cardiomyocytes co-infected with Ad-I-1 and AdPKCα wt, I-1 western blot quantified.

With “Inhibitor-1 (I-1), expressed from adenovirus in neonatal rat cardiomyocyte cultures”, the change in I-1 co-precipitated with PP1c (dominant negative PKCα co-expressed, against I-1 + β-gal) in test [1] is > 70 % increase. In addition, the change in I-1 co-precipitated with PP1c (wildtype PKCα co-expressed, against I-1 + β-gal) in test [2] came to 50 % reduction.
